Experimental data: US20200239570A1 (CRESCENDO BIOLOGICS, published 2020)
Like-named read-outs stand apart in the source and are kept apart here.

How the values were obtained:
[1] = target: human PD-1 expressed on cells (CHO human PD-1 cells) (human) (UniProt Q15116)
[2] = target: human PD-1 expressed on cells (CHO human PD-1 cells) (human) (UniProt Q15116); remark: listed apart in the source
[3] = target: T1, recombinant human PD-1 Fc chimera (human, UniProt Q15116 25-167); assay: HTRF inhibition assay: biotinylated PD-L2-Fc binding to Europium cryptate labelled human PD-1-Fc; the target of the control antibody is not given
T1 construct: Bought (R&D 1086-PD); Labelled with europium cryptate in the PD-L2 HTRF assay; also called human PD-1 (R&D Systems cat no. 1086-PD); human PD-1-huFc; not shown: human Fc of the bought chimera

[4] = target: T1, recombinant human PD-1 Fc chimera; assay: HTRF inhibition assay: strep tagged human PD-L1 binding to recombinant human PD-1 (PD-L1 by legend paragraph 65; the sheet's title reads PD1:PDL2); the target of the control antibody is not given
[5] = target: T2, mouse PD1 (R&D Systems cat no. 1021-PD) (mouse, UniProt Q02242 25-167); assay: HTRF binding assay on mouse PD-1
T2 construct: bought recombinant protein; also called mouse PD-1 protein
T2 sequence (looked up): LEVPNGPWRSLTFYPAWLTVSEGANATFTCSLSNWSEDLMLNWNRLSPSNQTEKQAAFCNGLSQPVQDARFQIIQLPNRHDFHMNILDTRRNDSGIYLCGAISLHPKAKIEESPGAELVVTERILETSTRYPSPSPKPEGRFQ
Protocol: (§1) Purified VH were tested for their ability to bind to human PD-1 (R&D Systems cat no. 1086-PD), cynomolgus PD-1 (Acro Biosystems cat no. PD1-C5254) and mouse PD1 (R&D Systems cat no. 1021-PD) in an HTRF Binding assay format. All reagents and serially diluted VH were prepared in assay buffer containing PBS, 0.1% BSA and 0.4M Potassium Fluoride. Samples or assay buffer (non-specific binding) were incubated with 2 nM human/cynomolgus or mouse PD-1, 1 nM Anti human-Fc Cryptate PAb (Cisbio cat. no. 61HFCKLB) and 30 nM anti His-D2 (CisBio cat no 61HISDLA) in black 384-shallow well assay plates for a minimum of 3 hours at room temperature. Time-resolved fluorescent emission at 620 nm and 665 nm was measured following excitation at 337 nm on the BMG PHERAstar plate reader. The HTRF ratio were calculated ((665 nm emission/620 nm emission)*10000) and the data corrected for (non-specific binding) to give the specific binding signal.

[6] = target: T1, recombinant human PD-1 Fc chimera; assay: BLI (Octet), PD-1-huFc on biosensor, 1:1 fit
Protocol: Binding kinetics of clones to human PD-1-huFc were measured in real-time bio-layer interferometer based biosensor Octet (ForteBio). Recombinant human PD-1-huFc was either immobilized by standard amine coupling to amine reactive biosensors in 10 mM sodium acetate at pH 5.0 or capture by protein G biosensors (ForteBio). All the binding studies were performed in HBS-ET Octet kinetics buffer. Biosensors were always washed in Octet kinetics buffer in between different steps. A seven point, two-fold dilution series of each Humabody® VH was made with a top concentration in range 100-30 nM. The contact time for each of the association steps was varied between 180-300 seconds and the dissociation step was varied between 400-600 seconds. Kinetic association (kₐ) and dissociation (kd) rate constants were determined by processing and fitting the data to a 1:1 binding model using ForteBio Analysis software.

[7] = target: T1, recombinant human PD-1 Fc chimera; assay: HTRF binding assay, His-tagged VH on 2 nM recombinant PD-1
Protocol: as §1

[8] = target: T3, cynomolgus PD-1 (Acro Biosystems cat no. PD1-C5254) (cynomolgus, UniProt B0LAJ3 25-170); assay: as above
T3 construct: bought recombinant protein; also called cyno PD-1; cynomolgus PD-1 recombinant protein; not shown: Human Fc tag of the vendor's construct, and any linker to it; The Fc is implied by detection with anti human-Fc cryptate
Protocol: as §1

[9] = target: T4, human PD-1 expressed on cells (CHO human PD-1 cells) (human, UniProt Q15116 21-288); assay: FMAT binding assay on CHO human PD-1 cells, detection by anti-His
T4 construct: CHO cells in the FMAT assays; Jurkat reporter cells in the reporter assay; primary CD4+ T cells in the mixed lymphocyte reaction; also called CHO TREX human PD1 cell line; CHO PD-1
From the text: Plates were read in the FL2 (502 nm-537 nm) and FL5 (677-800 nm) channels on the TTP Mirrorball plate reader following excitation at 488 nm and 640 nm. Data was gated on FL5 perimeter and peak intensity and the FL2 median mean fluorescence intensity of the gated data used for determination of VH binding.

[10] = target: T4, human PD-1 expressed on cells (CHO …); assay: FMAT epitope competition on CHO human PD-1 cells; competitor 2 nM 1.1-Strep tagged protein
Protocol: (§2) For the epitope competition assay reagents were prepared in FMAT assay buffer. […] Plates were incubated for a minimum of 1.5 hours at room temperature then fluorescence measured in the FL2 (502 nm-537 nm) and FL5 (677-800 nm) channels on the Mirrorball plate reader (TTP) following excitation at 488 nm and 640 nm. Data was expressed as a % of the total binding control (i.e. % control) after subtraction of the background signal determined from the non-specific binding control wells.

[11] = target: T4, human PD-1 expressed on cells (CHO …); assay: FMAT epitope competition on CHO human PD-1 cells; competitor 2 nM 2.1-Strep tagged protein
Protocol: as §2

[12] = target: T1, recombinant human PD-1 Fc chimera; assay: HTRF inhibition assay: strep tagged human PD-L1 binding to recombinant human PD-1 (PD-L1 by legend paragraph 65; the sheet's title reads PD1:PDL2)
Protocol: All samples and reagents were prepared in HTRF assay buffer containing PBS, 0.1% (w/v) BSA and 0.4M Potassium Fluoride. […] Total binding controls containing periplasmic extract sample buffer and non-specific binding controls containing excess untagged competitor were set up on each plate for data normalisation. Time-resolved fluorescent emission at 620 nm and 665 nm was measured following excitation at 337 nm on the BMG PHERAstar plate reader. Data was expressed as a % of the total binding control (% control) after subtraction of the background signal determined from the non-specific binding control wells.

[13] = target: T2, mouse PD1 (R&D Systems cat no. 1021-PD); assay: HTRF binding assay, 2 nM mouse PD-1
[14] = target: T4, human PD-1 expressed on cells (CHO …); assay: FMAT, His-tagged VH on CHO human PD-1 cells
[15] = target: T1, recombinant human PD-1 Fc chimera; assay: SPR (Biacore T200), PD-1-huFc amine-coupled to CM5, single cycle kinetics, 1:1 fit
Protocol: Binding kinetics of certain VH single domain antibodies binding to human PD-1-huFc were measured by surface plasmon resonance (SPR) technology using Biacore T200 instrument (GE Healthcare). Recombinant human PD-1-huFc was immobilized by standard amine coupling to CM5 sensorschip (GE Healthcare) using 0.01 mg/ml solution of antigen in 10 mM sodium acetate at pH 5.5. For the reference flow cell, a blank immobilisation was carried out. Single cycle kinetics assays were used to study the interaction, a five point, three-fold dilution series of each Humabody® was made with a top concentration of 30 nM. The binding kinetics were followed by flowing the Humabody® over the chip surface in HBS EP+ buffer at a flow rate of 30 μl/min. The contact time for each of the association steps was 180 seconds and the dissociation step was varied between 1200-3600 seconds. The data was fitted to a 1:1 binding model after double reference subtraction using the Biacore T200 Evaluation software.

[16] = target: T4, human PD-1 expressed on cells (CHO …); assay: 2.1 epitope competition assay (FMAT, CHO human PD-1 cells; competitor 2.1-Strep); VH pre-incubated in mouse serum, Day 0
Protocol: (§3) Serum stability of VH was assessed by measurement of its activity following incubation for 0, 1, 4 or 7 days in both human and mouse serum (Sigma M5905). The pre-incubated samples were serially diluted and tested in the 2.1 epitope competition assay.
as §2

[17] = target: T4, human PD-1 expressed on cells (CHO …); assay: 2.1 epitope competition assay (FMAT, CHO human PD-1 cells; competitor 2.1-Strep); VH pre-incubated in human serum at 37 C, Day 1
Protocol: as §3, §2

[18] = target: T4, human PD-1 expressed on cells (CHO …); assay: 2.1 epitope competition assay (FMAT, CHO human PD-1 cells; competitor 2.1-Strep); VH pre-incubated in human serum at 37 C, Day 4
Protocol: as §3, §2

[19] = target: T4, human PD-1 expressed on cells (CHO …); assay: 2.1 epitope competition assay (FMAT, CHO human PD-1 cells; competitor 2.1-Strep); VH pre-incubated in human serum at 37 C, Day 7
Protocol: as §3, §2

[20] = target: T4, human PD-1 expressed on cells (CHO …); assay: 2.1 epitope competition assay (FMAT, CHO human PD-1 cells; competitor 2.1-Strep); VH pre-incubated in mouse serum at 37 C, Day 1
Protocol: as §3, §2

[21] = target: T4, human PD-1 expressed on cells (CHO …); assay: 2.1 epitope competition assay (FMAT, CHO human PD-1 cells; competitor 2.1-Strep); VH pre-incubated in mouse serum at 37 C, Day 4
Protocol: as §3, §2

[22] = target: T4, human PD-1 expressed on cells (CHO …); assay: 2.1 epitope competition assay (FMAT, CHO human PD-1 cells; competitor 2.1-Strep); VH pre-incubated in mouse serum at 37 C, Day 7
Protocol: as §3, §2

[23] = target: T4, human PD-1 expressed on cells (CHO …); assay: 2.1 epitope competition assay (FMAT, CHO human PD-1 cells; competitor 2.1-Strep); VH pre-incubated in human serum, Day 0; Day 0, human serum
Protocol: as §3, §2

[24] = target: T4, human PD-1 expressed on cells (CHO …); assay: cell-based or functional assay

T4 sequence (Q15116 21-288): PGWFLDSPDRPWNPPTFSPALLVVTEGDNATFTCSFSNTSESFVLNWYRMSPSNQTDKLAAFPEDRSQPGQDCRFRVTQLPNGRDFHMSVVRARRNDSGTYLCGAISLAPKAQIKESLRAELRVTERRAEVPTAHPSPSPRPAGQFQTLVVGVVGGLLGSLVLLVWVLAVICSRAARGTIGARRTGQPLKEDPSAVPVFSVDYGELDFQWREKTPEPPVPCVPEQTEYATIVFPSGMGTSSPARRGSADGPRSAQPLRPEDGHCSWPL
T3 sequence (B0LAJ3 entry or part of it limits assumed): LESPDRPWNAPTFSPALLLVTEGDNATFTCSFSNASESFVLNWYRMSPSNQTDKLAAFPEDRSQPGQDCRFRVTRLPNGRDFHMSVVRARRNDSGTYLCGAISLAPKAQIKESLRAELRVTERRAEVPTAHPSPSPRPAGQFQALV
T1 sequence (Q15116 25-167, change not shown): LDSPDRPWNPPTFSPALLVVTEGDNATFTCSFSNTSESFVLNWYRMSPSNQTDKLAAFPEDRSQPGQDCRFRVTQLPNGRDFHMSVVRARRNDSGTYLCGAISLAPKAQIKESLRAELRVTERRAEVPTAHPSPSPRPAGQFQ
Sequence of human PD-1 expressed on cells (CHO human PD-1 cells) (human) (Q15116 21-288): as the sequence (Q15116 21-288) above

Control
EC50 (read off the curve), NFAT-luciferase reporter [1]: 5 nM | EC50 (read off the curve), NFAT-luciferase reporter [2]: 20 nM

Control anitbody (antibody)
IC50 (read off the curve) [3]: 300 pM | IC50 (read off the curve) [4]: 300 pM

B1: VH single domain antibody 1.1 (VHH)
VHH: EVQLLESGGGSVQPGRSLRLSCAASGFTFDDHAMHWVRQAPGKGLEWVSGISWNSGSMGYADSVKDRFTISRDNAKSSLYLQMNSLRAEDTALYYCVREKGPGLTGSTADYYGLDVWGQGTMVTVSS
notes: human VH single domain antibody (Humabody), purified through its C-terminal His tag; also called Humabody 1.1; clone 1.1
binding result [5]: no binding | Kd [6]: 1.9 nM | kon [6]: 450000 M⁻¹ s⁻¹ | EC50 [7]: 0.5 nM | EC50 [8]: 0.6 nM | EC50 (read off the curve) [9]: ~500 pM | IC50 [10]: 3.5 nM | IC50 [11]: 3.6 nM | IC50 (read off the curve) [12]: ~2 nM

B2: Humabody VH 1.39 (VHH)
VHH: EVQLVESGGGLVQPGRSLRLSCAASGFTFDDYALHWVRQAPGKDLEWVSGISWNGGSYGYADSVKGRFTISRDNAKNSLYLQMNSLRAEDTALYYCVREKGPGLTGSTADYYGLDAWGQGTMVTVSS
notes: human VH single domain antibody
binding result [13]: no binding | EC50 [14]: 0.6 nM | EC50 [7]: 2.6 nM | EC50 [8]: 6 nM | Kd [15]: 4.24 nM | koff [15]: 0.00134 s⁻¹ | kon [15]: 316000 M⁻¹ s⁻¹ | IC50 [10]: 8.9 nM | IC50 [11]: 9.7 nM | IC50 [16]: 8.7 nM | IC50 [17]: 10.1 nM | IC50 [18]: 10.2 nM | IC50 [19]: 9.3 nM | IC50 [20]: 9.3 nM | IC50 [21]: 11.1 nM | IC50 [22]: 11.6 nM | IC50 [23]: 12.9 nM

B3: VH single domain antibody 1.2 (VHH)
VHH: EVQLVESGGGLVQPGRSLRLSCAASGFTFDDYAMHWVRQAPGKDLEWVSGISWNGGSMGYAASVKGRFTISRDNAKNSLYLQMNSLRAEDTALYYCVKDKGPGLIGSTADYYGLDVWGQGTTVTVSS
notes: as for B2
binding result [5]: no binding | EC50 [7]: 0.9 nM | EC50 [8]: 1.1 nM | IC50 (read off the curve) [12]: ~5 nM

B4: Blocking VH (VHH)
VHH: EVQLVESGGGLVKPGGSLRLSCAASGFTFSDESMTWMRQAPGKGLEWVSYISSGGGVKFYADSVKGRFTISRDNAKNSLYLQMNSLRAEDTAVYYCAREAPLRLGESPHDAFDISGQGTMVTVSS
EC50 (read off the curve), NFAT-luciferase reporter [24]: ~20 nM
